In article PMC11446282 one finds Experimental % binding data, which are given here for four molecules.

The test system of this assay is PP2A-B55α. Put plainly: Single alanine mutational scan, YFP-tagged interactors immunoprecipitated from HeLa cells, Western blot. Particulars: single alanine mutant of YFP-tagged ZDS1. It counts as binding, human.

B1: ZDS1 S864: ZDS1, S864 to alanine (protein, UniProt P50111 1-915, looked up, variant S864A)
Protein ZDS1: MSNRDNESMLRTTSSDKAIASQRDKRKSEVLIAAQSLDNEIRSVKNLKRLSIGSMDLLIDPELDIKFGGESSGRRSWSGTTSSSASMPSDTTTVNNTRYSDPTPLENLHGRGNSGIESSNKTKQGNYLGIKKGVHSPSRKLNANVLKKNLLWVPANQHPNVKPDNFLELVQDTLQNIQLSDNGEDNDGNSNENNDIEDNGEDKESQSYENKENNTINLNRGLSRHGNASLIRRPSTLRRSYTEFDDNEDDDNKGDSASETVNKVEERISKIKERPVSLRDITEELTKISNSAGLTDNDAITLARTLSMAGSYSDKKDQPQPEGHYDEGDIGFSTSQANTLDDGEFASNMPINNTMTWPERSSLRRSRFNTYRIRSQEQEKEVEQSVDEMKNDDEERLKLTKNTIKVEIDPHKSPFRQQDEDSENMSSPGSIGDFQDIYNHYRQSSGEWEQEMGIEKEAEEVPVKVRNDTVEQDLELREGTTDMVKPSATDDNKETKRHRRRNGWTWLNNKMSREDDNEENQGDDENEENVDSQRMELDNSKKHYISLFNGGEKTEVSNKEEMNNSSTSTATSQTRQKIEKTFANLFRRKPHHKHDASSSPSSSPSSSPSIPNNDAVHVRVRKSKKLGNKSGREPVEPIVLRNRPRPHRHHHSRHGSQKISVKTLKDSQPQQQIPLQPQLEGAIEIEKKEESDSESLPQLQPAVSVSSTKSNSRDREEEEAKKKNKKRSNTTEISNQQHSKHVQKENTDEQKAQLQAPAQEQVQTSVPVQASAPVQNSAPVQTSAPVEASAQTQAPAAPPLKHTSILPPRKLTFADVKKPDKPNSPVQFTDSAFGFPLPLLTVSTVIMFDHRLPINVERAIYRLAHLKLSNSKRGLREQVLLSNFMYAYLNLVNHTLYMEQVAHDKEQQQQQQQQP
In turn, B1 displayed an Experimental % binding of 113%.

B2: ZDS1 L866: ZDS1, L866 to alanine (protein, UniProt P50111 1-915, looked up, variant L866A)
Protein ZDS1: MSNRDNESMLRTTSSDKAIASQRDKRKSEVLIAAQSLDNEIRSVKNLKRLSIGSMDLLIDPELDIKFGGESSGRRSWSGTTSSSASMPSDTTTVNNTRYSDPTPLENLHGRGNSGIESSNKTKQGNYLGIKKGVHSPSRKLNANVLKKNLLWVPANQHPNVKPDNFLELVQDTLQNIQLSDNGEDNDGNSNENNDIEDNGEDKESQSYENKENNTINLNRGLSRHGNASLIRRPSTLRRSYTEFDDNEDDDNKGDSASETVNKVEERISKIKERPVSLRDITEELTKISNSAGLTDNDAITLARTLSMAGSYSDKKDQPQPEGHYDEGDIGFSTSQANTLDDGEFASNMPINNTMTWPERSSLRRSRFNTYRIRSQEQEKEVEQSVDEMKNDDEERLKLTKNTIKVEIDPHKSPFRQQDEDSENMSSPGSIGDFQDIYNHYRQSSGEWEQEMGIEKEAEEVPVKVRNDTVEQDLELREGTTDMVKPSATDDNKETKRHRRRNGWTWLNNKMSREDDNEENQGDDENEENVDSQRMELDNSKKHYISLFNGGEKTEVSNKEEMNNSSTSTATSQTRQKIEKTFANLFRRKPHHKHDASSSPSSSPSSSPSIPNNDAVHVRVRKSKKLGNKSGREPVEPIVLRNRPRPHRHHHSRHGSQKISVKTLKDSQPQQQIPLQPQLEGAIEIEKKEESDSESLPQLQPAVSVSSTKSNSRDREEEEAKKKNKKRSNTTEISNQQHSKHVQKENTDEQKAQLQAPAQEQVQTSVPVQASAPVQNSAPVQTSAPVEASAQTQAPAAPPLKHTSILPPRKLTFADVKKPDKPNSPVQFTDSAFGFPLPLLTVSTVIMFDHRLPINVERAIYRLSHAKLSNSKRGLREQVLLSNFMYAYLNLVNHTLYMEQVAHDKEQQQQQQQQP
In turn, B2 had an Experimental % binding of 52%.

B3: ZDS1 K867: ZDS1, K867 to alanine (protein, UniProt P50111 1-915, looked up, variant K867A)
Protein ZDS1: MSNRDNESMLRTTSSDKAIASQRDKRKSEVLIAAQSLDNEIRSVKNLKRLSIGSMDLLIDPELDIKFGGESSGRRSWSGTTSSSASMPSDTTTVNNTRYSDPTPLENLHGRGNSGIESSNKTKQGNYLGIKKGVHSPSRKLNANVLKKNLLWVPANQHPNVKPDNFLELVQDTLQNIQLSDNGEDNDGNSNENNDIEDNGEDKESQSYENKENNTINLNRGLSRHGNASLIRRPSTLRRSYTEFDDNEDDDNKGDSASETVNKVEERISKIKERPVSLRDITEELTKISNSAGLTDNDAITLARTLSMAGSYSDKKDQPQPEGHYDEGDIGFSTSQANTLDDGEFASNMPINNTMTWPERSSLRRSRFNTYRIRSQEQEKEVEQSVDEMKNDDEERLKLTKNTIKVEIDPHKSPFRQQDEDSENMSSPGSIGDFQDIYNHYRQSSGEWEQEMGIEKEAEEVPVKVRNDTVEQDLELREGTTDMVKPSATDDNKETKRHRRRNGWTWLNNKMSREDDNEENQGDDENEENVDSQRMELDNSKKHYISLFNGGEKTEVSNKEEMNNSSTSTATSQTRQKIEKTFANLFRRKPHHKHDASSSPSSSPSSSPSIPNNDAVHVRVRKSKKLGNKSGREPVEPIVLRNRPRPHRHHHSRHGSQKISVKTLKDSQPQQQIPLQPQLEGAIEIEKKEESDSESLPQLQPAVSVSSTKSNSRDREEEEAKKKNKKRSNTTEISNQQHSKHVQKENTDEQKAQLQAPAQEQVQTSVPVQASAPVQNSAPVQTSAPVEASAQTQAPAAPPLKHTSILPPRKLTFADVKKPDKPNSPVQFTDSAFGFPLPLLTVSTVIMFDHRLPINVERAIYRLSHLALSNSKRGLREQVLLSNFMYAYLNLVNHTLYMEQVAHDKEQQQQQQQQP
As to B3, the Experimental % binding came to 15%.

B4: ZDS1 H865: ZDS1, H865 to alanine (protein, UniProt P50111 1-915, looked up, variant H865A)
Protein ZDS1: MSNRDNESMLRTTSSDKAIASQRDKRKSEVLIAAQSLDNEIRSVKNLKRLSIGSMDLLIDPELDIKFGGESSGRRSWSGTTSSSASMPSDTTTVNNTRYSDPTPLENLHGRGNSGIESSNKTKQGNYLGIKKGVHSPSRKLNANVLKKNLLWVPANQHPNVKPDNFLELVQDTLQNIQLSDNGEDNDGNSNENNDIEDNGEDKESQSYENKENNTINLNRGLSRHGNASLIRRPSTLRRSYTEFDDNEDDDNKGDSASETVNKVEERISKIKERPVSLRDITEELTKISNSAGLTDNDAITLARTLSMAGSYSDKKDQPQPEGHYDEGDIGFSTSQANTLDDGEFASNMPINNTMTWPERSSLRRSRFNTYRIRSQEQEKEVEQSVDEMKNDDEERLKLTKNTIKVEIDPHKSPFRQQDEDSENMSSPGSIGDFQDIYNHYRQSSGEWEQEMGIEKEAEEVPVKVRNDTVEQDLELREGTTDMVKPSATDDNKETKRHRRRNGWTWLNNKMSREDDNEENQGDDENEENVDSQRMELDNSKKHYISLFNGGEKTEVSNKEEMNNSSTSTATSQTRQKIEKTFANLFRRKPHHKHDASSSPSSSPSSSPSIPNNDAVHVRVRKSKKLGNKSGREPVEPIVLRNRPRPHRHHHSRHGSQKISVKTLKDSQPQQQIPLQPQLEGAIEIEKKEESDSESLPQLQPAVSVSSTKSNSRDREEEEAKKKNKKRSNTTEISNQQHSKHVQKENTDEQKAQLQAPAQEQVQTSVPVQASAPVQNSAPVQTSAPVEASAQTQAPAAPPLKHTSILPPRKLTFADVKKPDKPNSPVQFTDSAFGFPLPLLTVSTVIMFDHRLPINVERAIYRLSALKLSNSKRGLREQVLLSNFMYAYLNLVNHTLYMEQVAHDKEQQQQQQQQP
For B4, the Experimental % binding stood at 75%.
